In patent US20230183336A1 (MODMAB THERAPEUTICS, published 2023):

Key:
[1] = molecular target: T1, recombinant mouse LRP5-His chimera (mouse, UniProt Q91VN0 31-1383); assay: single-point ELISA, coated antigen, purified Fab or IgG1, anti-kappa-HRP
T1 construct: extracellular domain; also called ECD of mouse LRP5; not shown: His tag
T1 sequence (looked up): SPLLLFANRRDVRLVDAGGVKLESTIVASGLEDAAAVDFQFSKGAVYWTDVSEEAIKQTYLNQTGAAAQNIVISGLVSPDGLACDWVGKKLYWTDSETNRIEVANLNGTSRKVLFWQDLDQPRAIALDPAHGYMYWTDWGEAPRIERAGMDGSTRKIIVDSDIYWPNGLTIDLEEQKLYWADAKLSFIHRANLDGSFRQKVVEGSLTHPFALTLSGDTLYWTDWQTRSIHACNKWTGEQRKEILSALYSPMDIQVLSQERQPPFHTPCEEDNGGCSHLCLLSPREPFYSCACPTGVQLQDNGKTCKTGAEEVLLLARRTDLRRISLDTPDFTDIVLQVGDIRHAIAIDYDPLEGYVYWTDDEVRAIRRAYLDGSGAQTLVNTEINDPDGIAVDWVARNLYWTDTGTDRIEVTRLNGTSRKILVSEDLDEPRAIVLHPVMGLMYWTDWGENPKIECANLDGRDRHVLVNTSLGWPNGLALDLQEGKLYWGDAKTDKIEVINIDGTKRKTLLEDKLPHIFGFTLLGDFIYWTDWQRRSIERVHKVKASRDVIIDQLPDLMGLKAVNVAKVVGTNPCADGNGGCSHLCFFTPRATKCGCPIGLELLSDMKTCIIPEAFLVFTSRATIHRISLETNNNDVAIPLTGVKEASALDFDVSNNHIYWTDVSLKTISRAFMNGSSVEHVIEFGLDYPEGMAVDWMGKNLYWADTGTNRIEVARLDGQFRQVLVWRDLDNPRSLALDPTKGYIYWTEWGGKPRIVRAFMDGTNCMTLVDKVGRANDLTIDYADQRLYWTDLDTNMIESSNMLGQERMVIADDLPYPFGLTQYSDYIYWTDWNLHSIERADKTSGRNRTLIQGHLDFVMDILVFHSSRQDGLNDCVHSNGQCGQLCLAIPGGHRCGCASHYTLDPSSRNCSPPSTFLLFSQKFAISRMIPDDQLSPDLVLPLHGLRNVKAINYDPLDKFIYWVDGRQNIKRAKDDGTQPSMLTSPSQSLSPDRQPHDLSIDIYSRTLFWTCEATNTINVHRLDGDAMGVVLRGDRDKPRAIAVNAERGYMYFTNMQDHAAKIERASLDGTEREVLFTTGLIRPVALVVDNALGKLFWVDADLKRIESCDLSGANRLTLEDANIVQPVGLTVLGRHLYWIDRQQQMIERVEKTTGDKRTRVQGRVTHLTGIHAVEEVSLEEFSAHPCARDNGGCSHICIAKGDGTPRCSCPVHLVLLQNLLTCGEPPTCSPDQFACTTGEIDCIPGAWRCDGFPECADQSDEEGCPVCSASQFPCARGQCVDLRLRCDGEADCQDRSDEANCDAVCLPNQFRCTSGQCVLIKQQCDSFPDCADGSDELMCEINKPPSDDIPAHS
Protocol: (§1) FIGS. 1A and 1B show sixteen (16) anti-LRP antibodies. (A) The amino acid sequences of the complementarity determining regions (CDR) of the heavy (H) and the light (L) chains are presented. The antibodies were grouped into unique epitopes as determined by competitive ELISAs. (B) Single-point ELISAs were performed on 96-well Maxisorb immune plates coated with ECD's of mouse LRP5, mouse LRP6 and human LRP6 chimeras. The plates were incubated with the purified Fab or IgG1 at the concentrations indicated followed by incubation with horseradish peroxidase (HRP)-conjugated anti-kappa antibody. The wells were washed eight times followed by incubation with 3,3′,5,5′-tetramethylbenzidine/H₂O₂ peroxidase (TMB) substrate for 5-10 min. The reaction was stopped by adding 1M H₃PO₄ and the absorbance was measured spectrometrically at 450 nm in a microtiter plate reader. FIG. 1A discloses “SSVA” as SEQ ID NO: 34, and “SASSLYS” as SEQ ID NO: 35, as well as SEQ ID NOS 36-49, 51, 44, 2-4, 4, 5-7, 5, 4, 5, 8-10, 4, 52, 55, 11-16, 15, 15, 13, 17-20, 13, 53, 56, 21-23, 22, 24-33, 54, 57, respectively, in order of columns.
(§2) The full length IgG1s and the antibody fragments (Fabs) were purified and a single-point ELISA was done to determine the specificity of the antibodies. […] A multipoint competitive ELISA was used to determine the relative affinities of the antibodies to the recombinant antigen.

[2] = molecular target: T2, recombinant mouse LRP6-His chimera (mouse, UniProt O88572 20-1370); assay: as above
T2 construct: extracellular domain; also called ECD of mouse LRP6; not shown: His tag
T2 sequence (looked up): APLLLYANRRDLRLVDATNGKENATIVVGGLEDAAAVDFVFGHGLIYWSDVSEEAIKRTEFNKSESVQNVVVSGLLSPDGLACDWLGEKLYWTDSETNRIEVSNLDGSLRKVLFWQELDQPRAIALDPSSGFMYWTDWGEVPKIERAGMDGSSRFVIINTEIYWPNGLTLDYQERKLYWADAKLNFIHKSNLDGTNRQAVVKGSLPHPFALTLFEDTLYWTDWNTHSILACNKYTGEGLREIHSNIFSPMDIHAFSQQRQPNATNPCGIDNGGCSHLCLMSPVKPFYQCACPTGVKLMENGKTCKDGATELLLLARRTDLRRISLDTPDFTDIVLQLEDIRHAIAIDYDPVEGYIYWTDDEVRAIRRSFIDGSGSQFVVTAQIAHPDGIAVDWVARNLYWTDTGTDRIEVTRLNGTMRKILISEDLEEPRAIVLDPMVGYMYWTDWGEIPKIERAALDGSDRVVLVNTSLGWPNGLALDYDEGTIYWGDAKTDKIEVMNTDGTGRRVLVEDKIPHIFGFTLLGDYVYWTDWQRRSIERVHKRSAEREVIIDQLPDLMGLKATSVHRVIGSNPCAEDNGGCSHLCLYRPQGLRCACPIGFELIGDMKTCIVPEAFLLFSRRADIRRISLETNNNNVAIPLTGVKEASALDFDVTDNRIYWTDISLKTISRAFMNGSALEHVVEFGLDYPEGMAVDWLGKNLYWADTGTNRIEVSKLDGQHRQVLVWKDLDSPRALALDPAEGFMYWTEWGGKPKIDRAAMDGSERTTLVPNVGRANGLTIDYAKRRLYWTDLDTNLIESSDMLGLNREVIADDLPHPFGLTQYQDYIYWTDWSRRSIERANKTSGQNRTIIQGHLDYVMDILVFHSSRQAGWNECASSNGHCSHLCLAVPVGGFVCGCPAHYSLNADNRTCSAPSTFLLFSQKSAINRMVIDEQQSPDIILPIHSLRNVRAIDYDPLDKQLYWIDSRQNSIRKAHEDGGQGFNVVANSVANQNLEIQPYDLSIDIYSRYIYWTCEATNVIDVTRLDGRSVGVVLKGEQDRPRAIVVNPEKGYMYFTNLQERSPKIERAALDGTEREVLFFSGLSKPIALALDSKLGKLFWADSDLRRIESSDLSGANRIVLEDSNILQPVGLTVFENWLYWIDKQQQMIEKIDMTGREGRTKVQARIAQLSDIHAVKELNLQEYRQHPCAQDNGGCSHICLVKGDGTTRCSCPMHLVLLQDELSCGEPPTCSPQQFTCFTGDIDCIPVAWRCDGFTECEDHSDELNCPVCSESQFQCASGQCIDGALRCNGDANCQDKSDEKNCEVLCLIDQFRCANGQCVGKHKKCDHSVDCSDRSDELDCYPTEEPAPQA
Protocol: as §1, §2

B1: LRP5-R3O_D3 (antibody, V domains shown)
VH: EVQLVESGGGLVQPGGSLRLSCAASGFNFSSSSIHWVRQAPGKGLEWVASISSSYGYTYYADSVKGRFTISADTSKNTAYLQMNSLRAEDTAVYYCARSWAMDYWGQGTLVTVSS
VL: DIQMTQSPSSLSASVGDRVTITCRASQSVSSAVAWYQQKPGKAPKLLIYSASSLYSGVPSRFSGSRSGTDFTLTISSLQPEDFATYYCQQYWAYYSPITFGQGTKVEIKR
notes: Fab-phage in the screen; also called LRP5-R30_D3; LRP5-R30D3
B1: binds [1]; binds [2].
